Data taken from article PMC11796402, “Overcoming barriers for investigating nickel-pincer nucleotide cofactor-related enzymes” (mBio, 2024).

Tests used:
purified protein [1] = substrate: C[C@@H](O)C(=O)O; test: purified protein; type: biochemical, Lactiplantibacillus plantarum; conditions: PBS pH 7.4, 35°C, 2.13 µM enzyme, racemization to L-lactate
purified protein [2] = substrate: C[C@H](O)C(=O)O; test: purified protein; type: biochemical, Lactiplantibacillus plantarum; conditions: PBS pH 7.4, 35°C, 2.13 µM enzyme, racemization to D-lactate

B1: LarALp (Lactiplantibacillus plantarum WCFS1) (protein)
chain: VAIDLPYDKRTITAQIDDENYAGKLVSQAATYHNKLSEQETVEKSLDNPIGSDKLEELARGKHNIVIISSDHTRPVPSHIITPILLRRLRSVAPDARIRILVATGFHRPSTHEELVNKYGEDIVNNEEIVMHVSTDDSSMVKIGQLPSGGDCIINKVAAEADLLISEGFIESHFFAGFSGGRKSVLPGIASYKTIMANHSGEFINSPKARTGNLMHNSIHKDMVYAARTAKLAFIINVVLDEDKKIIGSFAGDMEAAHKVGCDFVKELSSVPAIDCDIAISTNGGYPLDQNIYQAVKGMTAAEATNKEGGTIIMVAGARDGHGGEGFYHNLADVDDPKEFLDQAINTPRLKTIPDQWTAQIFARILVHHHVIFVSDLVDPDLITNMHMELAKTLDEAMEKAYAREGQAAKVTVIPDGLGVIVK
notes: co-expressed with L. plantarum LarB, LarC, LarE in E. coli BL21(DE3) (Duet, pAT035/pAT038)
Q: B1 was tested. Which Km (purified protein [1]) did it give?
A: The Km was 23 ± 12 mM.

Q: And the kcat (purified protein [1])?
A: The kcat was 185 ± 12 s⁻¹.

Q: What about the Km (purified protein [2]) of the same protein?
A: Its Km is 32 ± 10 mM.

Q: What about the kcat (purified protein [2]) of the same protein?
A: The kcat was 179 ± 25 s⁻¹.
